Assay results taken from paper PMC2734569, “Functional mapping of the fission yeast DNA polymerase δ B-subunit Cdc1 by site-directed and random pentapeptide insertion mutagenesis” (BMC Molecular Biology, 2009).

Tests used:
Experiment in all cases: two-hybrid; LexA-Cdc1 bait (pBTM116 or pBTM116BN) with Gal4 activation domain-Cdc27 prey (pGAD2F-Cdc27) in S. cerevisiae CTY10-5d; ONPG liquid culture beta-galactosidase assay, mean of triplicates, as percent of wild-type Cdc1
Conditions in all cases: partners not purified
Cdc1-E4 = target: T1, Cdc1-E4 (Schizosaccharomyces pombe, UniProt P87324 1-462, Cys-GlyValProProCys-Glu)
T1 construct: Cdc1, S. pombe, with a pentapeptide inserted after residue 10; source: yeast two-hybrid fusion, in S. cerevisiae CTY10-5d
T1 sequence (looked up): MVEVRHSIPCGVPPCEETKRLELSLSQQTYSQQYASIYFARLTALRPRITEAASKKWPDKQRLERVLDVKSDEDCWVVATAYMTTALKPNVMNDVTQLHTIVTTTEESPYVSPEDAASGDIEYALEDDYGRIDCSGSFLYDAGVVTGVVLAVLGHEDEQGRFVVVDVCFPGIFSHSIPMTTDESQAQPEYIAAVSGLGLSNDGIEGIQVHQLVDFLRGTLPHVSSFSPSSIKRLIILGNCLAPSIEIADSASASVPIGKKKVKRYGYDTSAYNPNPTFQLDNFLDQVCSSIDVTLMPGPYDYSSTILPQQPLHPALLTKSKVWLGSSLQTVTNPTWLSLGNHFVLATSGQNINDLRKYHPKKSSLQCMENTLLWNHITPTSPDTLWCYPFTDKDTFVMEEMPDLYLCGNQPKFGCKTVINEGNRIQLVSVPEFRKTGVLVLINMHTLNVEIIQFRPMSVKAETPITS

Cdc1-J3 = target: T2, Cdc1-J3 (Schizosaccharomyces pombe, UniProt P87324 1-462, Leu-GlyValProLeuLeu-Asp)
T2 construct: Cdc1, S. pombe, with a pentapeptide inserted after residue 62; also called E3; E8; source: yeast two-hybrid fusion, in S. cerevisiae CTY10-5d
T2 sequence (looked up): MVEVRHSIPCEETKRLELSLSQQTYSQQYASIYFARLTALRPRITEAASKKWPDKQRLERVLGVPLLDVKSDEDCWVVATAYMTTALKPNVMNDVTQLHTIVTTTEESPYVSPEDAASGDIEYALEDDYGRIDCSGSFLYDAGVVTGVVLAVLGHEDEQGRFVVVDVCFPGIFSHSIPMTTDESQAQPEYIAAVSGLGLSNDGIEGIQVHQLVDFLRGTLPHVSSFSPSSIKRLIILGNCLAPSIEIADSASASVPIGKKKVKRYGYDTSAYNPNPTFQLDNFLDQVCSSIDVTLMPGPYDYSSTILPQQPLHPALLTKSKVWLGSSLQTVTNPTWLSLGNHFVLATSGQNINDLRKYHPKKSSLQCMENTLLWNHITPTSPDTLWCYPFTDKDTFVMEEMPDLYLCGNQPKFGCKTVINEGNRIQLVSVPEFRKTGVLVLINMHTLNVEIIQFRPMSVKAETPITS

Cdc1-A9 = target: T3, Cdc1-A9 (Schizosaccharomyces pombe, UniProt P87324 1-462, Pro292Ala | Gly293Ala)
T3 construct: Cdc1, S. pombe, double point mutant (A1 and A2 combined); source: yeast two-hybrid fusion, in S. cerevisiae CTY10-5d
T3 sequence (looked up): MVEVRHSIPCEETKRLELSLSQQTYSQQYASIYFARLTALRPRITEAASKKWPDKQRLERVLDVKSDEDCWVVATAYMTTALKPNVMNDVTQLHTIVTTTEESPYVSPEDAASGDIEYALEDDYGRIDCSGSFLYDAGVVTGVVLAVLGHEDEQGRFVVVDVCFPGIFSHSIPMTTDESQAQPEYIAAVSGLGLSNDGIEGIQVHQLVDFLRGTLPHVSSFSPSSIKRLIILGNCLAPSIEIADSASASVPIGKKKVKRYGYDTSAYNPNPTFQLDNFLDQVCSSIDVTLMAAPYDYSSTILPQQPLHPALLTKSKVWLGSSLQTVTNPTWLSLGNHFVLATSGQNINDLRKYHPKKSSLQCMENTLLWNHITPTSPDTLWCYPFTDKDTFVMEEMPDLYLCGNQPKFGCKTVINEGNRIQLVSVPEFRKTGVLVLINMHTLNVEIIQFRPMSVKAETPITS

Cdc1-J8 = target: T4, Cdc1-J8 (Schizosaccharomyces pombe, UniProt P87324 1-462, Lys-GlyValProLeuLys-Pro)
T4 construct: Cdc1, S. pombe, with a pentapeptide inserted after residue 83; also called J19; source: yeast two-hybrid fusion, in S. cerevisiae CTY10-5d
T4 sequence (looked up): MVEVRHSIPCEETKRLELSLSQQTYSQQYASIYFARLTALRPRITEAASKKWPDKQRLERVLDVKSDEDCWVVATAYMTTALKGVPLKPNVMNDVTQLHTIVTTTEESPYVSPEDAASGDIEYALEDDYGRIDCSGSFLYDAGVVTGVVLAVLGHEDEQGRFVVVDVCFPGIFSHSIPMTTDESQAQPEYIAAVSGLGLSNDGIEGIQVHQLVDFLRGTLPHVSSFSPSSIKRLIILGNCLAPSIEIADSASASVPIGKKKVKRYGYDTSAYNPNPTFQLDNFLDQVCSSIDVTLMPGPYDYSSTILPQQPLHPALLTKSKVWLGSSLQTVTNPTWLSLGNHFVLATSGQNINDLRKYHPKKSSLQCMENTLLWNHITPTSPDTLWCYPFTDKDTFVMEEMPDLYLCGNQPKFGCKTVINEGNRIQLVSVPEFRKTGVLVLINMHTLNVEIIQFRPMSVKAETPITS

B1: Cdc27 (fission yeast DNA polymerase delta C-subunit) (natural protein, Schizosaccharomyces pombe, UniProt P30261 1-372, looked up)
chain: MEEWRNFLDIKVINESSLVTVDNLSLQLDISSEKAQEYLNMFYQGNDFLYPIYLIHGQPIDDEINLEIDEESQPISNFPVLQYILCDKSSLQEKQSRLKSGYKTVIFALSSAPLSDFDELLPAVYEIREKDVLYKKEDADKYGFIFNENSVPRVLKKAPSTHSPQLSVPSKTSTIDKTDTRSTEKTKGKDIFSNARNQKGNSSRKNKKAPLENHKEKEPLLPKEEKLSEQAKRERDDLKNIMQLEDESVSTTSVHDSEDDNLDSNNFQLEIGTEAKSAAPDEPQEIIKSVSGGKRRGKRKVKKYATTKDEEGFLVTKEEEVWESFSEDENISTGTSNVVRNKPTTVNIATKKKNTAQSKPQQKSIMSFFGKK
notes: DNA polymerase delta C-subunit Cdc27, S. pombe; prey plasmid pGAD2F-Cdc27; also called pGAD2F-Cdc27; source: yeast two-hybrid fusion, in S. cerevisiae CTY10-5d
With B1 the “two-hybrid beta-galactosidase activity, % of wild-type Cdc1” value (Cdc1-E4) was 62%, the “two-hybrid beta-galactosidase activity, % of wild-type Cdc1” value (Cdc1-J3) was < 1% and the “two-hybrid beta-galactosidase activity, % of wild-type Cdc1” value (Cdc1-A9) was 58%. The “two-hybrid beta-galactosidase activity, % of wild-type Cdc1” value (Cdc1-J8) was 128%.
